Data on one substance can be found in publication PMC3335157.

The target of assay [1] is Full-length αvβ3 integrin (UniProt P06756).
The target is the same in assay [2]. Briefly: SPR; BIAcore T100; αvβ3 integrin immobilised via primary amines on a CM5 chip (1341-2655 RU); NC1 α4(IV) injected at several concentrations and flow rates; 25°C; 10 mM Hepes pH 7.4, 150 mM NaCl, 1 mM MgCl2, 2 mM MnCl2, 50 mM β-octyl-D-glucopyranoside; global fit, two-state model.

UniProt P06756, sequence (P06756 31-1048, chain 1 of 2): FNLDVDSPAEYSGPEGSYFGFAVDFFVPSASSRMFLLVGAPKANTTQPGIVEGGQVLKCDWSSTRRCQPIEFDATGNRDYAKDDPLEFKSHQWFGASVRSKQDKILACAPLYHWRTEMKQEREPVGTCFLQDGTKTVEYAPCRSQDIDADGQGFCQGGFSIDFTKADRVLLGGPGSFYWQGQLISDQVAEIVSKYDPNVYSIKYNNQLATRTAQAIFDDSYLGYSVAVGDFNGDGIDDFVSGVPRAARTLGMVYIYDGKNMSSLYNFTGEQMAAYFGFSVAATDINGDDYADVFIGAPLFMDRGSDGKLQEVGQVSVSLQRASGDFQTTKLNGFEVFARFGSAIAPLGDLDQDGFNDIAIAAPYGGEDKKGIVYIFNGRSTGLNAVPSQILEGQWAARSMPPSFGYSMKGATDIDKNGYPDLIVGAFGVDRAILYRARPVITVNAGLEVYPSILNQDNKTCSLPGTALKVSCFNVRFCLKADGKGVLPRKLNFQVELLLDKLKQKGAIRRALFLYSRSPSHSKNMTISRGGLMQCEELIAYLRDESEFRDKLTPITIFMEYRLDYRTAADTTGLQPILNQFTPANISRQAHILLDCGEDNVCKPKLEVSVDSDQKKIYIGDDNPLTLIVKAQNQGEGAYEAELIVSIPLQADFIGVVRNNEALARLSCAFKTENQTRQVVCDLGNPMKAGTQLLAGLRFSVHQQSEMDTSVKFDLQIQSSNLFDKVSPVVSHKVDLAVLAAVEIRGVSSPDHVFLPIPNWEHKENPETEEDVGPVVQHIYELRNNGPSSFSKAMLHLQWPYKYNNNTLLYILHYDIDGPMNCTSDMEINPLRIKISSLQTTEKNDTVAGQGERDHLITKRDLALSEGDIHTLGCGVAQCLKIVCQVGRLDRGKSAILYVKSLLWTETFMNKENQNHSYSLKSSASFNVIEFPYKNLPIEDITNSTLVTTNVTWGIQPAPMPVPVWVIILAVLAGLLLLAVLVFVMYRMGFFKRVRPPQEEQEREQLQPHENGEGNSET
UniProt P06756, sequence (P05106 27-788, chain 2 of 2, further chain): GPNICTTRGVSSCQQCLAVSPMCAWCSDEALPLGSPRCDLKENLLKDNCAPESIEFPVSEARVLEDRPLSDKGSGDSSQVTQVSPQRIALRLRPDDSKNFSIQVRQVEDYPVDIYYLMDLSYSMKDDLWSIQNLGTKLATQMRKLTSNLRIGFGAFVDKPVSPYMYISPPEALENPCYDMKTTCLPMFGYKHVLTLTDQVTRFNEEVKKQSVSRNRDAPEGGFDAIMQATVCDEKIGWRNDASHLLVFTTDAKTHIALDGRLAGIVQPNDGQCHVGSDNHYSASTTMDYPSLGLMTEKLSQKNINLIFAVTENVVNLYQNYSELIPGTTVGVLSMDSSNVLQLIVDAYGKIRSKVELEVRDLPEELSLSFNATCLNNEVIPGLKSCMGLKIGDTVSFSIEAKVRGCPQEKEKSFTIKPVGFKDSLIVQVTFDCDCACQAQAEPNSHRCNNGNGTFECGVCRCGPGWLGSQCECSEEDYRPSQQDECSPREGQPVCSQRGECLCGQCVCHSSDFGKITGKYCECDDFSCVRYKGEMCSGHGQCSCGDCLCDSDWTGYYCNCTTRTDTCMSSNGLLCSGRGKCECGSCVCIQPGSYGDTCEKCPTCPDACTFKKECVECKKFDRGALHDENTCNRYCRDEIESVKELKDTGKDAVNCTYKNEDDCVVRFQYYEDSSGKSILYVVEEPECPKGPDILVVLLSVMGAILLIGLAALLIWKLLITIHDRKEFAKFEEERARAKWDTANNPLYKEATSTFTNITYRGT

With “Recombinant human NC1 α4(IV) domain (NC1[α4(IV)1-229]) (domain or fragment)”, the adhesion of UACC-903 melanoma cells on recombinant NC1 α4(IV) substratum; change after preincubation of the cells with an anti-αvβ3 integrin blocking antibody (10 µg/mL); irrelevant IgG had no effect in assay [1] is -38%. In addition, in assay [2], the Kd worked out at 0.148 µM.
